Measured values as given in PMC4497498, “Kv1.3 contains an alternative C-terminal ER exit motif and is recruited into COPII vesicles by Sec24a” (BMC Biochemistry, 2015).

Legend:
[1] = target: the molecule itself; test: native gel or EMSA + other: negative stain electron microscopy; purified Kv1.3 in Fos-12 or amphipol A8-35 on a 4-16 % native gel; negative stain EM with 2D class averages of Kv1.3 in A8-35; tetramer
[2] = target: T1, Sec24a^341 (Sec24a lacking the first 341 residues) (human, UniProt O95486 342-1093); test: membrane flotation assay; 15 ug Sec24a^341 incubated with 15 ug Kv1.3 proteoliposomes (DOPC:DOPS 95:5) in 25 mM Tris, 150 mM NaCl, 160 mM KOAc, 1 mM MgOAc, pH 7.5, 30 % sucrose, 32 °C for 1 h; overlaid with 25 % and 0 % sucrose, 200,000 g for 1 h at 4 °C; fractions read by Western blot; details: both partners purified
T1 construct: Sec24a, COPII cargo adaptor subunit, human; ~80 kDa; source: Hi5 insect cells (baculovirus), purified (HisPur Cobalt resin, Superose 6)
T1 sequence (looked up): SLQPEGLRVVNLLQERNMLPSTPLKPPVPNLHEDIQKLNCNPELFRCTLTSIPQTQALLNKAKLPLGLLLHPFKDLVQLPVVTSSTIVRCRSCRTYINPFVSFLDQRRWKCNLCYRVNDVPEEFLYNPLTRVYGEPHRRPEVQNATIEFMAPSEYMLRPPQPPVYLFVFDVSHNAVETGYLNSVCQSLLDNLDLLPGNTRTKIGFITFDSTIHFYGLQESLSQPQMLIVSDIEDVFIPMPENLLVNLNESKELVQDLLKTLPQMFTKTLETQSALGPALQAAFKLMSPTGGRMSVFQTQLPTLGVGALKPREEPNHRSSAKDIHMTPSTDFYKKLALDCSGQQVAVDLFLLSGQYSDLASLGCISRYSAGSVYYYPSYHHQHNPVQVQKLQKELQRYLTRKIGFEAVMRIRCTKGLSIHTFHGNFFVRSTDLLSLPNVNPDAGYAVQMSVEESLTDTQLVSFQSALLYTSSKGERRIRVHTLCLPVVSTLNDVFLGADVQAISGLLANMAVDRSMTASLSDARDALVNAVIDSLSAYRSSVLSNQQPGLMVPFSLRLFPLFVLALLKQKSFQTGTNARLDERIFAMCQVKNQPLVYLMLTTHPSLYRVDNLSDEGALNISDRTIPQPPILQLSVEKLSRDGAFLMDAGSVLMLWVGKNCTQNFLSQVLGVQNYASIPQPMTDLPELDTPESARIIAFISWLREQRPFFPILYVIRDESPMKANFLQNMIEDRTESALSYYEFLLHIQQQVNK

B1: Kv1.3 (mouse Shaker-type voltage-gated potassium channel subfamily member 3), recombinant, His6-tagged (natural protein, UniProt P16390 1-528, looked up)
chain: MTVVPGDHLLEPEAAGGGGGDPPQGGCGSGGGGGGCDRYEPLPPALPAAGEQDCCGERVVINISGLRFETQLKTLCQFPETLLGDPKRRMRYFDPLRNEYFFDRNRPSFDAILYYYQSGGRIRRPVNVPIDIFSEEIRFYQLGEEAMEKFREDEGFLREEERPLPRRDFQRQVWLLFEYPESSGPARGIAIVSVLVILISIVIFCLETLPEFRDEKDYPASPSQDVFEAANNSTSGAPSGASSFSDPFFVVETLCIIWFSFELLVRFFACPSKATFSRNIMNLIDIVAIIPYFITLGTELAERQGNGQQAMSLAILRVIRLVRVFRIFKLSRHSKGLQILGQTLKASMRELGLLIFFLFIGVILFSSAVYFAEADDPSSGFNSIPDAFWWAVVTMTTVGYGDMHPVTIGGKIVGSLCAIAGVLTIALPVPVIVSNFNYFYHRETEGEEQAQYMHVGSCQHLSSSAEELRKARSNSTLSKSEYMVIEEGGMNHSAFPQTPFKTGNSTATCTTNNNPNSCVNIKKIFTDV
modifications: phosphorylated, sites not stated (non-dephosphorylated tetramers were used for reconstitution)
notes: Kv1.3, mouse; wild type cDNA cut from Kv1.3-pcDNA3 at the Nco and Kpn sites and ligated into pFastbac HT; Integral membrane protein; a monomer runs at ~65 kDa; No TEV cleavage of the tag is described; also called Kv1.3 tetramers; Kv1.3 proteoliposomes; source: Hi5 insect cells (baculovirus), purified (cobalt Chelating Sepharose, Superose 6) in Fos-12; reconstituted into DOPC:DOPS proteoliposomes, …
Question: How did the “stoichiometry N” value [1] turn out when B1 was run?
Answer: Its value is 4.

Question: Does B1 bind [2]?
Answer: Result: binds
